We go through 37 molecules from patent US20060246046A1 (published 2006).

First the molecules themselves.
T1: factor XIIIa (human, UniProt P00488 39-732)
T1 sequence (looked up): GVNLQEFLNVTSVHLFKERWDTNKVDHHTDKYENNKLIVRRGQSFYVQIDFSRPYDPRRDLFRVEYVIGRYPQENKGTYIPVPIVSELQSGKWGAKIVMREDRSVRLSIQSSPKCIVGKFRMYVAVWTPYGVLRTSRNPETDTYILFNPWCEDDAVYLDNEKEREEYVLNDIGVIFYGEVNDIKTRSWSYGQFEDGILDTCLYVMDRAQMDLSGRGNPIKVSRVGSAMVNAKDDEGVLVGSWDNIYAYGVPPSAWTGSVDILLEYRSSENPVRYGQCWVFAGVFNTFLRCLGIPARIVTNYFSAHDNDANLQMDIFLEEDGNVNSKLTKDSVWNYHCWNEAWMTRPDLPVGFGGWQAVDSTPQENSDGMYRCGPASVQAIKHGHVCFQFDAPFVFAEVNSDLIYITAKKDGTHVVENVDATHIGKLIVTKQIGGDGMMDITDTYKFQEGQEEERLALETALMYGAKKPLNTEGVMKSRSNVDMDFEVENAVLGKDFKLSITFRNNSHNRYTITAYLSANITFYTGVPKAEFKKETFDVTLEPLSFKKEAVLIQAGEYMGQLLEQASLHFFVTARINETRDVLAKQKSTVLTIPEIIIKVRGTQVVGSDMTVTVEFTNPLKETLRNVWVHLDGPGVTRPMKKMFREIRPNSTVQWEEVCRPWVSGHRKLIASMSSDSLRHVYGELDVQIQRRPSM

B1: recombinant wild-type tridegin polypeptide (SEQ ID No. 1) from Escherichia coli (protein, not shown: small tags and cut ends)
chain: MKLLPCKEWHQGIPNPRCWCGADLECAQDQYCAFIPQCRPRSELIKPMDDIYQRPVEFPNLPLKPREE
B2: modified tridegin K07A (protein, not shown: small tags and cut ends)
chain: MKLLPCAEWHQGIPNPRCWCGADLECAQDQYCAFIPQCRPRSELIKPMDDIYQRPVEFPNLPLKPREE
B3: modified tridegin N60A (protein, not shown: small tags and cut ends)
chain: MKLLPCKEWHQGIPNPRCWCGADLECAQDQYCAFIPQCRPRSELIKPMDDIYQRPVEFPALPLKPREE
B4: modified tridegin K02A (protein, not shown: small tags and cut ends)
chain: MALLPCKEWHQGIPNPRCWCGADLECAQDQYCAFIPQCRPRSELIKPMDDIYQRPVEFPNLPLKPREE
B5: modified tridegin F58A (protein, not shown: small tags and cut ends)
chain: MKLLPCKEWHQGIPNPRCWCGADLECAQDQYCAFIPQCRPRSELIKPMDDIYQRPVEAPNLPLKPREE
B6: modified tridegin H10A (protein, not shown: small tags and cut ends)
chain: MKLLPCKEWAQGIPNPRCWCGADLECAQDQYCAFIPQCRPRSELIKPMDDIYQRPVEFPNLPLKPREE
B7: modified tridegin F34A (protein, not shown: small tags and cut ends)
chain: MKLLPCKEWHQGIPNPRCWCGADLECAQDQYCAAIPQCRPRSELIKPMDDIYQRPVEFPNLPLKPREE
B8: modified tridegin M48A (protein, not shown: small tags and cut ends)
chain: MKLLPCKEWHQGIPNPRCWCGADLECAQDQYCAFIPQCRPRSELIKPADDIYQRPVEFPNLPLKPREE
B9: modified tridegin R39A (protein, not shown: small tags and cut ends)
chain: MKLLPCKEWHQGIPNPRCWCGADLECAQDQYCAFIPQCAPRSELIKPMDDIYQRPVEFPNLPLKPREE
B10: modified tridegin P65A (protein, not shown: small tags and cut ends)
chain: MKLLPCKEWHQGIPNPRCWCGADLECAQDQYCAFIPQCRPRSELIKPMDDIYQRPVEFPNLPLKAREE
B11: modified tridegin D50A (protein, not shown: small tags and cut ends)
chain: MKLLPCKEWHQGIPNPRCWCGADLECAQDQYCAFIPQCRPRSELIKPMDAIYQRPVEFPNLPLKPREE
B12: modified tridegin Cys variant C06A (protein, not shown: small tags and cut ends)
chain: MKLLPAKEWHQGIPNPRCWCGADLECAQDQYCAFIPQCRPRSELIKPMDDIYQRPVEFPNLPLKPREE
B13: modified tridegin G12A (protein, not shown: small tags and cut ends)
chain: MKLLPCKEWHQAIPNPRCWCGADLECAQDQYCAFIPQCRPRSELIKPMDDIYQRPVEFPNLPLKPREE
B14: modified tridegin D50A, P55L (protein, not shown: small tags and cut ends)
chain: MKLLPCKEWHQGIPNPRCWCGADLECAQDQYCAFIPQCRPRSELIKPMDAIYQRLVEFPNLPLKPREE
B15: modified tridegin I45A (protein, not shown: small tags and cut ends)
chain: MKLLPCKEWHQGIPNPRCWCGADLECAQDQYCAFIPQCRPRSELAKPMDDIYQRPVEFPNLPLKPREE

The first experiment concerns the target T1, factor XIIIa. Put plainly: cell-based or functional assay.
On to B1, for which the IC50, Berichrom assay (factor XIIIa activity) was in the range of 2000 to 4000 nM; the Relative inhibitory effect (%) at 5.45 µM, wild type = 100% came to 100%; the Relative inhibitory effect (%) at 7.27 µM (reference) came to 100%.

With B2, the Relative inhibitory effect (%) at 5.45 µM, wild type = 100% is 90%. The same measure, in the same setting: the result for B3 reads 68%; that for B4, 113%; that for B5, 60%. The same measure, in the same setting: the result for B6 reads 87%; that for B7, 96%. B8: the Relative inhibitory effect (%) at 5.45 µM, wild type = 100% is 91%.

In the case of B9, the Relative inhibitory effect (%) at 5.45 µM, wild type = 100% amounted to 49%. Turning to B10, the Relative inhibitory effect (%) at 5.45 µM, wild type = 100% amounted to 51%. For B11, the Relative inhibitory effect (%) at 5.45 µM, wild type = 100% worked out at 53%. As for B12, the Relative inhibitory effect (%) at 5.45 µM, wild type = 100% was determined as 72%. With B13, the Relative inhibitory effect (%) at 5.45 µM, wild type = 100% is 97%. For the molecule B14, the Relative inhibitory effect (%) at 5.45 µM, wild type = 100% was 84%.

In the case of B15, the Relative inhibitory effect (%) at 5.45 µM, wild type = 100% was 115%.

The target of the next experiment is T1, factor XIIIa. Nature of the experiment: cell-based or functional assay. The source holds these as a separate data set.
Regarding Ac-RCWCGADLECAQDQYCAFIP-NH2 (cysteine pairing not given here) [20 amino acid-long tridegin peptide SEQ ID NO.10], the “Relative inhibitory effect (%) at 7.27 µM, recombinant tridegin = 100%” value came out at 5.88%. Take Ac-RPRSELIKPMDDIYQRPVEF-NH2 [20 amino acid-long tridegin peptide SEQ ID NO.21]: the “Relative inhibitory effect (%) at 7.27 µM, recombinant tridegin = 100%” value was determined as 19.4%. Take Ac-DLECAQDQYCAFIPQCRPRS-NH2 (cysteine pairing not given here) [20 amino acid-long tridegin peptide SEQ ID NO.13]: the “Relative inhibitory effect (%) at 7.27 µM, recombinant tridegin = 100%” value was determined as 7.96%. As for Ac-GADLECAQDQYCAFIPQCRP-NH2 (cysteine pairing not given here) [20 amino acid-long tridegin peptide SEQ ID NO.12], the “Relative inhibitory effect (%) at 7.27 µM, recombinant tridegin = 100%” value came to 2.49%.

Ac-WHQGIPNPRCWCGADLECAQ-NH2 (cysteine pairing not given here) [20 amino acid-long tridegin peptide SEQ ID NO.6]: the “Relative inhibitory effect (%) at 7.27 µM, recombinant tridegin = 100%” value came to 9.8%. Still for that read-out and setting: the result for Ac-NPRCWCGADLECAQDQYCAF-NH2 (cysteine pairing not given here) [20 amino acid-long tridegin peptide SEQ ID NO.9] reads 0%; that for Ac-WCGADLECAQDQYCAFEPQC-NH2 (cysteine pairing not given here) [20 amino acid-long tridegin peptide SEQ ID NO.11], 0.36%. In the case of Ac-IPQCRPRSELIKPMDDIYQR-NH2 [20 amino acid-long tridegin peptide SEQ ID NO.19], the “Relative inhibitory effect (%) at 7.27 µM, recombinant tridegin = 100%” value was determined as 0%. Ac-QGIPNPRCWCGADLECAQDQ-NH2 (cysteine pairing not given here) [20 amino acid-long tridegin peptide SEQ ID NO.7]: the “Relative inhibitory effect (%) at 7.27 µM, recombinant tridegin = 100%” value was 13.7%. In the case of Ac-LLPCKEWHQGIPNPRCWCGA-NH2 (cysteine pairing not given here) [20 amino acid-long tridegin peptide SEQ ID NO.3], the “Relative inhibitory effect (%) at 7.27 µM, recombinant tridegin = 100%” value is 5.88%. With Ac-DQYCAFIPQCRPRSELIKPM-NH2 (cysteine pairing not given here) [20 amino acid-long tridegin peptide SEQ ID NO.16], the “Relative inhibitory effect (%) at 7.27 µM, recombinant tridegin = 100%” value stood at 14.8%. Same read-out and setting: the result for Ac-ECAQDQYCAFIPQCRPRSEL-NH2 (cysteine pairing not given here) [20 amino acid-long tridegin peptide SEQ ID NO.14] reads 6.3%; that for Ac-MKLLPCKEWHQGIPNPRCWC-NH2 (cysteine pairing not given here) [20 amino acid-long tridegin peptide SEQ ID NO.2], 0%; that for Ac-RSELIKPMDDIYQRPVEFPN-NH2 [20 amino acid-long tridegin peptide SEQ ID NO.22], 8.64%. On the same count and under the same terms, the result for Ac-ELIKPMDDIYQRPVEFPNLP-NH2 [20 amino acid-long tridegin peptide SEQ ID NO.23] reads 24%. Regarding Ac-AFIPQCRPRSELIKPMDDIY-NH2 [20 amino acid-long tridegin peptide SEQ ID NO.18], the “Relative inhibitory effect (%) at 7.27 µM, recombinant tridegin = 100%” value came to 13.3%. Regarding Ac-IPNPRCWCGADLECAQDQYC-NH2 (cysteine pairing not given here) [20 amino acid-long tridegin peptide SEQ ID NO.8], the “Relative inhibitory effect (%) at 7.27 µM, recombinant tridegin = 100%” value stood at 13.7%. For the molecule Ac-AQDQYCAFIPQCRPRSELIK-NH2 (cysteine pairing not given here) [20 amino acid-long tridegin peptide SEQ ID NO.15], the “Relative inhibitory effect (%) at 7.27 µM, recombinant tridegin = 100%” value is 3.32%. For the molecule Ac-PCKEWHQGIPNPRCWCGADL-NH2 (cysteine pairing not given here) [20 amino acid-long tridegin peptide SEQ ID NO.4], the “Relative inhibitory effect (%) at 7.27 µM, recombinant tridegin = 100%” value is 9.8%.

As for Ac-KEWHQGIPNPRCWCGADLEC-NH2 (cysteine pairing not given here) [20 amino acid-long tridegin peptide SEQ ID NO.5], the “Relative inhibitory effect (%) at 7.27 µM, recombinant tridegin = 100%” value was 1.96%. Ac-YCAFEPQCRPRSELIKPMDD-NH2 (cysteine pairing not given here) [20 amino acid-long tridegin peptide SEQ ID NO.17]: the “Relative inhibitory effect (%) at 7.27 µM, recombinant tridegin = 100%” value came to 12.3%. For Ac-QCRPRSELIKPMDDIYQRPV-NH2 [20 amino acid-long tridegin peptide SEQ ID NO.20], the “Relative inhibitory effect (%) at 7.27 µM, recombinant tridegin = 100%” value stood at 11.1%.
